In assay [1] the target is T1, human CD3 (human, UniProt P07766 23-207). Nature of the assay: cell-based or functional assay.
Assay [2] concerns the target T1, human CD3. Nature of the assay: cell-based or functional assay. The source holds these as a separate data set.
Assay [3] has as its target T2, Cynomolgus monkey CD3 protein (cynomolgus monkey, UniProt Q95LI5 22-117).
T2 sequence (looked up): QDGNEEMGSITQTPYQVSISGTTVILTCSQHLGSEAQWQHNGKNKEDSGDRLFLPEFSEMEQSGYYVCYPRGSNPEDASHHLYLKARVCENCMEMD
The assay is described as follows: ELISA on cynomolgus monkey CD3 protein, curve fit. On the technique in general: In an ELISA, binding on a coated surface is turned into a signal by an enzyme label.

The target of assay [4] is T3, human CEA (human, UniProt P06731 35-702).
T3 sequence (looked up): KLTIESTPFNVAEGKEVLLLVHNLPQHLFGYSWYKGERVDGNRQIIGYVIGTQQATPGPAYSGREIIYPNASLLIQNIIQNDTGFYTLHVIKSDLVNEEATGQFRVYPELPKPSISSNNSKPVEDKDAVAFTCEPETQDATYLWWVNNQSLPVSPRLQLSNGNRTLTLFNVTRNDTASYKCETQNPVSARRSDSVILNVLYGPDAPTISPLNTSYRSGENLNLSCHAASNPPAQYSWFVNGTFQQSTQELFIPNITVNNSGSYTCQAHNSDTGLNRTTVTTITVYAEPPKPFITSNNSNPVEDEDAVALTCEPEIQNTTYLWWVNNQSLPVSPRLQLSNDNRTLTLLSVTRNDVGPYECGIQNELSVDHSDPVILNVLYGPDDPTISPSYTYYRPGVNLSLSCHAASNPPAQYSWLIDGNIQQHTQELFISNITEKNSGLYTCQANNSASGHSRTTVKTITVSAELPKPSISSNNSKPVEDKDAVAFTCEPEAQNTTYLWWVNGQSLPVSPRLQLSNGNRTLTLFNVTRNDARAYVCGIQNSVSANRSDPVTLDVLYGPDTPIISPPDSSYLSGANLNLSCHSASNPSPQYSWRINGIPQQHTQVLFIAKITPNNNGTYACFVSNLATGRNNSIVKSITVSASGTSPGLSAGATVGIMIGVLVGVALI
Nature of the assay: cell-based or functional assay.

The target of assay [5] is T3, human CEA. Nature of the assay: cell-based or functional assay. The source holds these as a separate data set.
The target in assay [6] is T3, human CEA. Nature of the assay: cell-based or functional assay. This is another data set of the same source.
The target in assay [7] is T1, human CD3. Nature of the assay: flow cytometry on human PBMC (ND 12). The procedure: (§1) Mean fluorescence intensity (MFI) was determined by Flow cytometry. […] Mean fluorescence intensity (MFI) was determined by Flow cytometry.
Background: A flow cytometer gives signals particle by particle.

The target in assay [8] is T1, human CD3. The assay is described as follows: flow cytometry on Jurkat cells. The method, then: as §1
In assay [9] the target is T3, human CEA. The assay is described as follows: cell-based or functional assay. The source holds these as a separate data set.

Numbering of substitutions follows the chain as printed. Where two headings read alike, the source gives them in different places.

T1 sequence (P07766 23-207): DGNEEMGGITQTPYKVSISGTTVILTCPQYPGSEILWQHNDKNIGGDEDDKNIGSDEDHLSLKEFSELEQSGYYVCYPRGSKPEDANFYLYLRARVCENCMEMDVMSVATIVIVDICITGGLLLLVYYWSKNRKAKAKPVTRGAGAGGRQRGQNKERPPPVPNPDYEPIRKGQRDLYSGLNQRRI

B1: CEA/CD3OPT1a (bispecific antibody, V domains shown)
VH 1: EVQLVESGGGLVQPGGSLRLSCAASGFNIKDTYMHWVRQAPGKGLEWVARIDPAQGNTKYADSVKGRFTISADTSKNTAYLQMNSLRAEDTAVYYCAPFGYYVSDYAMAYWGQGTLVTVSS
VL 1: DIQLTQSPSSLSASVGDRVTITCRAGESVDIFGVGFLHWYQQKPGKAPKLLIYRASNLESGVPSRFSGSGSRTDFTLTISSLQPEDFATYYCQQTNEDPYTFGQGTKVEIK
VH 2: EVQLVESGGGLVKPGGSLKLSCAASGFTFSTYAMNWVRQAPGKGLEWVARIRSKYNNYATYYADSVKDRFTISRDDSKNTAYLQMNNLRTEDTAVYYCVRHGNFGNSYISYWAYWGQGTTVTVSS
VL 2: not shown
notes: Same format as m1; also called OPTSP34 1a; copies: 2 + 2 + 2 + 2
Consider B1, for which, in the assay with human CD3 [1], the “NFAT-luciferase in Jurkat cells: Bottom” value is 49.9, the “NFAT-luciferase in Jurkat cells: LogEC50” value is -0.801, the “NFAT-luciferase in Jurkat cells: Span” value was 1150 and the “NFAT-luciferase in Jurkat cells: Top” value amounted to 1200. In addition, in the assay with human CD3 [2], the “NFAT-luciferase in Jurkat cells: Bottom” value was 1570, the “NFAT-luciferase in Jurkat cells: LogEC50” value is -0.0022, the “NFAT-luciferase in Jurkat cells: Span” value turned out to be 130000 and the “NFAT-luciferase in Jurkat cells: Top” value turned out to be 132000. Moreover, in assay [3], the “Bottom (best-fit)” value is 0.0666, the LogEC50 was -1.32, the “Span (best-fit)” value is 4.02 and the “Top (best-fit)” value came to 4.09. In addition, in the assay with human CEA [4], the “lysis of LS-174T cells by PBMC: Bottom” value came out at 17.3, the “lysis of LS-174T cells by PBMC: LogEC50” value is -2.81, the “lysis of LS-174T cells by PBMC: Span” value stood at 89.2 and the “lysis of LS-174T cells by PBMC: Top” value amounted to 106. Further, in the assay with human CEA [5], the “lysis of KATO III cells by PBMC: Bottom” value came out at 52.5, the “lysis of KATO III cells by PBMC: LogEC50” value was -0.944, the “lysis of KATO III cells by PBMC: Span” value came out at 51.7 and the “lysis of KATO III cells by PBMC: Top” value came out at 104.

B2: CEA/CD3OPT1a3b2b1 BsAb (bispecific antibody, V domains shown)
VH 1: B1 VH 1
VL 1: B1 VL 1
VH 2: B1 VH 2 with Y61T, F104W
VL 2: not shown
notes: also called CEA/CD3-1a3b2b1-BsAb; Lead CEA/CD3; copies: 2 + 2 + 2 + 2
In general, EC50 refers to the midpoint of the concentration-response curve. As for B2, in the assay with human CEA [6], the “cytolysis of KATO-III cells by PBMC: EC50” value was determined as 0.132 nM, the “cytolysis of LS174T cells by PBMC: EC50” value amounted to 0.0003 nM and the “cytolysis of MKN-45 cells by PBMC: EC50” value came to 0.0003 nM. It took 81 nM to reach a half-maximal effect with human CD3 [7] (EC50). Besides, in the assay with human CD3 [8], the midpoint of the response, the EC50, lay at 113 nM. In the assay with human CD3 [2], the “NFAT-luciferase in Jurkat cells: Bottom” value turned out to be 2830, the “NFAT-luciferase in Jurkat cells: LogEC50” value is -0.154, the “NFAT-luciferase in Jurkat cells: Span” value came to 17200 and the “NFAT-luciferase in Jurkat cells: Top” value came to 20000. For the same molecule, in assay [3], the “Bottom (best-fit)” value amounted to 0.00678, the LogEC50 is -1.75, the “Span (best-fit)” value amounted to 4.09 and the “Top (best-fit)” value was 4.1. Also, in the assay with human CEA [4], the “lysis of LS-174T cells by PBMC: Bottom” value was 12.6, the “lysis of LS-174T cells by PBMC: LogEC50” value is -2.18, the “lysis of LS-174T cells by PBMC: Span” value was found to be 91.8 and the “lysis of LS-174T cells by PBMC: Top” value worked out at 104. For the same molecule, in the assay with human CEA [5], the “lysis of KATO III cells by PBMC: Bottom” value came out at 58.1, the “lysis of KATO III cells by PBMC: LogEC50” value is -0.194, the “lysis of KATO III cells by PBMC: Span” value is 36.2 and the “lysis of KATO III cells by PBMC: Top” value was determined as 94.3. For the same molecule, the “killing of LS-174T cells by PBMC at E:T ratio of 5:1” value with human CEA [9] is 20%.

For the origin of these results see patent US20230075633A1 (SHANDONG BOAN BIOTECHNOLOGY, published 2023).
